Legend:
HLA-A*02:01 = HLA-A*02:01 (Homo sapiens, UniProt P04439, D140Y/D185E/D98H/E176V/E277Q/G131W/G231S/I119V/I121R/I166T/I218V/L300P/L318F/N151K/N90K/P208A/P217A/Q86G/Q94H/R138H/R169H/T345S); experiment: MHC binding assay (UV-ligand exchange, beta2m ELISA, peptide exchange yield); conditions: MHC class I binding score; binding to HLA-A*02:01 ranged by peptide exchange yield (UV-ligand exchange, β2m ELISA)
Summary of the method: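 Exchange yield is an ELISA read-out: complexes diluted 100-fold, captured on streptavidin plates, detected with HRP anti-β2m and TMB at 450 nm. Standard curve from refolded HLA-A*02:01/MLA-001 (15-500 ng/ml); complexes made by UV-triggered displacement of a photolabile ligand by test peptide.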

CD8+ T-cells = experiment: In vitro T-cell priming assay with aAPCs loaded with peptide/MHC and anti-CD28, pMHC multimer readout; format: cell-based, human; conditions: in vitro immunogenicity; for Wells positive: HLA-A*02 restricted peptides; for donors (percentage of positive donors) / wells (percentage of positive wells): HLA class I peptides
From the text: In order to obtain information regarding the immunogenicity of the TUMAPs of the present invention, the inventors performed investigations using an in vitro T-cell priming assay based on repeated stimulations of CD8+ T-cells with artificial antigen presenting cells (aAPCs) loaded with peptide/MHC complexes and anti-CD28 antibody.
In order to perform in vitro stimulations by artificial antigen presenting cells loaded with peptide-MHC complex (pMHC) and anti-CD28 antibody, the inventors first isolated CD8+ T-cells from fresh HLA-A*02 leukopheresis products via positive selection using CD8 microbeads (Miltenyi Biotec, Bergisch-Gladbach, Germany) of healthy donors obtained from the University clinics Mannheim, Germany, after informed consent.
PBMCs and isolated CD8+ lymphocytes were incubated in T-cell medium (TCM) until use consisting of RPMI-Glutamax (Invitrogen, Karlsruhe, Germany) supplemented with 10% heat inactivated human AB serum (PAN-Biotech, Aidenbach, Germany), 100 U/ml Penicillin/100 μg/ml Streptomycin (Cambrex, Cologne, Germany), 1 mM sodium pyruvate (CC Pro, Oberdorla, Germany), 20 μg/ml Gentamycin (Cambrex). 2.5 ng/ml IL-7 (PromoCell, Heidelberg, Germany) and 10 U/ml IL-2 (Novartis Pharma, Nürnberg, Germany) were also added to the TCM at this step.
Generation of pMHC/anti-CD28 coated beads, T-cell stimulations and readout was performed in a highly defined in vitro system using four different pMHC molecules per stimulation condition and 8 different pMHC molecules per readout condition.
The purified co-stimulatory mouse IgG2a anti human CD28 Ab 9.3 (Jung et al., 1987) was chemically biotinylated using Sulfo-N-hydroxysuccinimidobiotin as recommended by the manufacturer (Perbio, Bonn, Germany). Beads used were 5.6 μm diameter streptavidin coated polystyrene particles (Bangs Laboratories, Illinois, USA).
800,000 beads/200 μl were coated in 96-well plates in the presence of 4×12.5 ng different biotin-pMHC, washed and 600 ng biotin anti-CD28 were added subsequently in a volume of 200 μl. Stimulations were initiated in 96-well plates by co-incubating 1×10^6 CD8+ T-cells with 2×10^5 washed coated beads in 200 μl TCM supplemented with 5 ng/ml IL-12 (PromoCell) for 3 days at 37° C. Half of the medium was then exchanged by fresh TCM supplemented with 80 U/ml IL-2 and incubating was continued for 4 days at 37° C. This stimulation cycle was performed for a total of three times. For the pMHC multimer readout using 8 different pMHC molecules per condition, a two-dimensional combinatorial coding approach was used as previously described (Andersen et al., 2012) with minor modifications encompassing coupling to 5 different fluorochromes. Finally, multimeric analyses were performed by staining the cells with Live/dead near IR dye (Invitrogen, Karlsruhe, Germany), CD8-FITC antibody clone SK1 (BD, Heidelberg, Germany) and fluorescent pMHC multimers. For analysis, a BD LSRII SORP cytometer equipped with appropriate lasers and filters was used. Peptide specific cells were calculated as percentage of total CD8+ cells. Evaluation of multimeric analysis was done using the FlowJo software (Tree Star, Oregon, USA). In vitro priming of specific multimer+ CD8+ lymphocytes was detected by comparing to negative control stimulations.

Row | Peptide exchange (HLA-A*02:01) | Substance | Wells positive (CD8+ T-cells) | donors (percentage of positive donors) (CD8+ T-cells) | wells (percentage of positive wells) (CD8+ T-cells)
1 | ″+++″ (≥50 = +++) | 1 (ALIKQLFEA; listed as Homo sapiens) [compound 1] | ″+″ (<20% = +) |  | 
2 | ″++″ (≥20% = ++) | 2 (ALLPRYFFL; listed as Homo sapiens) [compound 2] | ″++++″ (>= 70% = ++++) |  | 
3 | ″++++″ (≥75% = ++++) | 3 (RLIPDTLYSV; listed as Homo sapiens) [compound 3] | ″+++″ (50%-69% = +++) |  | 
4 | ″++++″ (≥75% = ++++) | 5 (WLFDDGGLTL; listed as Homo sapiens) [compound 5] | ″++″ (20%-49% = ++) |  | 
5 | ″++″ (≥20% = ++) | 7 (YLTRHLAVL; listed as Homo sapiens) [compound 7] | ″+″ (<20% = +) |  | 
6 | ″++″ (≥20% = ++) | 9 (ILDDHLSRV; listed as Homo sapiens) [compound 9] | ″+″ (<20% = +) |  | 
7 | ″+++″ (≥50 = +++) | 10 (RMYNKIFAI; listed as Homo sapiens) [compound 10] | ″++++″ (>= 70% = ++++) |  | 
8 | ″+++″ (≥50 = +++) | 11 (YLFEKTFNM; listed as Homo sapiens) [compound 11] | ″+″ (<20% = +) |  | 
9 | ″+++″ (≥50 = +++) | 12 (ALVQGILERV; listed as Homo sapiens) [compound 12] | ″++++″ (>= 70% = ++++) |  | 
10 | ″+++″ (≥50 = +++) | 13 (FLLAEDTKV; listed as Homo sapiens) [compound 13] | ″++″ (20%-49% = ++) |  | 
11 | ″+++″ (≥50 = +++) | 17 (ALAAARVEL; listed as Homo sapiens) [compound 17] | ″++″ (20%-49% = ++) |  | 
12 | ″+++″ (≥50 = +++) | 18 (FLSSLKGGLL; listed as Homo sapiens) [compound 18] | ″+″ (<20% = +) |  | 
13 | ″+++″ (≥50 = +++) | 19 (RLYTKLLNEA; listed as Homo sapiens) [compound 19] | ″+++″ (50%-69% = +++) |  | 
14 | ″+++″ (≥50 = +++) | 21 (VLIDHRWVL; listed as Homo sapiens) [compound 21] | ″+″ (<20% = +) |  | 
15 | ″+++″ (≥50 = +++) | 22 (GLIDEVMVL; listed as Homo sapiens) [compound 22] | ″++″ (20%-49% = ++) |  | 
16 | ″+++″ (≥50 = +++) | 31 (LLYGKYVSV; listed as Homo sapiens) [compound 31] | ″++″ (20%-49% = ++) |  | 
17 | ″++″ (≥20% = ++) | 32 (KLNTETFGV; listed as Homo sapiens) [compound 32] | ″++″ (20%-49% = ++) |  | 
18 | ″+++″ (≥50 = +++) | 37 (GLFAGLGGAGA; listed as Homo sapiens) [compound 37] | ″+″ (<20% = +) |  | 
19 | ″++″ (≥20% = ++) | 38 (SLAPTPVSA; listed as Homo sapiens) [compound 38] | ″+″ (<20% = +) |  | 
20 | ″++++″ (≥75% = ++++) | 42 (SILDDSFKL; listed as Homo sapiens) [compound 42] | ″+″ (<20% = +) |  | 
21 | ″++″ (≥20% = ++) | 47 (KLYERCEVV; listed as Homo sapiens) [compound 47] | ″+″ (<20% = +) |  | 
22 | ″+++″ (≥50 = +++) | 59 (LLTDNVVKL; listed as Homo sapiens) [compound 59] | ″+″ (<20% = +) |  | 
23 | ″++″ (≥20% = ++) | 64 (KTLGKLWRL; listed as Homo sapiens) [compound 64] | ″++++″ (>= 70% = ++++) |  | 
24 | ″++″ (≥20% = ++) | 123 (KTLERSYLL; listed as Homo sapiens) [compound 123] | ″+″ (<20% = +) |  | 

Row | Peptide exchange (HLA-A*02:01) | Substance | Wells positive (CD8+ T-cells) | donors (percentage of positive donors) (CD8+ T-cells) | wells (percentage of positive wells) (CD8+ T-cells)
25 | ″+++″ (≥50 = +++) | 124 (RVLPPSALQSV; listed as Homo sapiens) [compound 124] | ″+″ (<20% = +) |  | 
26 | ″+++″ (≥50 = +++) | 127 (RLAELTVDEFLA; listed as Homo sapiens) [compound 127] | ″+″ (<20% = +) |  | 
27 | ″++″ (≥20% = ++) | 132 (ALLNAILHSA; listed as Homo sapiens) [compound 132] | ″+″ (<20% = +) |  | 
28 | ″++″ (≥20% = ++) | 133 (RTFEKIEEV; listed as Homo sapiens) [compound 133] | ″+″ (<20% = +) |  | 
29 | ″+++″ (≥50 = +++) | 136 (KLFDIFSQQV; listed as Homo sapiens) [compound 136] | ″++″ (20%-49% = ++) |  | 
30 | ″++++″ (≥75% = ++++) | 141 (AVIEHLERL; listed as Homo sapiens) [compound 141] | ″+″ (<20% = +) |  | 
31 | ″+++″ (≥50 = +++) | 175 (TLLGGKEAQALGV; listed as Homo sapiens) [compound 175] |  |  | 
32 | ″++″ (≥20% = ++) | 176 (RTLDKVLEV; listed as Homo sapiens) [compound 176] |  |  | 
33 | ″+++″ (≥50 = +++) | 177 (ALLQGAIESV; listed as Homo sapiens) [compound 177] |  |  | 
34 | ″++″ (≥20% = ++) | 178 (YLFREPATI; listed as Homo sapiens) [compound 178] |  |  | 
35 | ″+++″ (≥50 = +++) | 179 (RLLSPLSSA; listed as Homo sapiens) [compound 179] |  |  | 
36 | ″+++″ (≥50 = +++) | 181 (NLFDLGGQYLRV; listed as Homo sapiens) [compound 181] |  |  | 
37 | ″++++″ (≥75% = ++++) | 182 (SLNKWIFTV; listed as Homo sapiens) [compound 182] |  |  | 
38 | ″+++″ (≥50 = +++) | 183 (TLQEVVTGV; listed as Homo sapiens) [compound 183] |  |  | 
39 | ″+++″ (≥50 = +++) | 184 (SLLDENNVSSYL; listed as Homo sapiens) [compound 184] |  |  | 
40 | ″+++″ (≥50 = +++) | 185 (VLYTGVVRV; listed as Homo sapiens) [compound 185] |  |  | 
41 | ″+++″ (≥50 = +++) | 186 (KMSEKILLL; listed as Homo sapiens) [compound 186] |  |  | 
42 | ″+++″ (≥50 = +++) | 187 (GLHNVVYGI; listed as Homo sapiens) [compound 187] |  |  | 
43 | ″+++″ (≥50 = +++) | 188 (FLVDGPRVQL; listed as Homo sapiens) [compound 188] |  |  | 
44 | ″+++″ (≥50 = +++) | 189 (AISEVIGKITA; listed as Homo sapiens) [compound 189] |  |  | 
45 | ″+++″ (≥50 = +++) | 190 (AMAEMVLQV; listed as Homo sapiens) [compound 190] |  |  | 
46 | ″++++″ (≥75% = ++++) | 191 (QLFSEIHNL; listed as Homo sapiens) [compound 191] |  |  | 
47 |  | 219 (FLDEKGRCV; listed as Homo sapiens) [compound 219] |  | +++ (50%-69% = +++) | ++ (20%-49% = ++)
48 |  | 220 (KMDPVAYRV; listed as Homo sapiens) [compound 220] |  | ++++ (>=70% = ++++) | +++ (50%-69% = +++)
